Read-outs that look alike come from different tables or passages of the source.
Columns and labels:
[1] = biological target: T1, P6-AA-12HAA-E; experiment: two-hybrid library CCmax; details: mean of both orientations;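 further: natural log of median RNA to DNA barcode read ratio; higher means stronger binding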
T1 chain: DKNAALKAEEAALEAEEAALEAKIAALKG

[2] = biological target: T2, P6-AA-12HAA-H; experiment: two-hybrid library CCmax; details: mean of both orientations;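 further: natural log of median RNA to DNA barcode read ratio; higher means stronger binding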
T2 chain: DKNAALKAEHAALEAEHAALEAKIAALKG

[3] = biological target: T3, P6-AA-12HAA-Y; experiment: two-hybrid library CCmax;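 further: natural log of median RNA to DNA barcode read ratio; higher means stronger binding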
T3 chain: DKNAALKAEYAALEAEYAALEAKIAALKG

[4] = biological target: T4, P6-AA-12HAA-D; experiment: two-hybrid library CCmax; details: mean of both orientations;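 further: natural log of median RNA to DNA barcode read ratio; higher means stronger binding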
T4 chain: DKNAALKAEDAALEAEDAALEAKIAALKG

[5] = biological target: T5, P6-AA-12HAA-L; experiment: two-hybrid library CCmax; details: mean of both orientations
T5 chain: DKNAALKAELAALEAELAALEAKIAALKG

[6] = biological target: T6, P6-AA-12HAA-R; experiment: two-hybrid library CCmax; details: mean of both orientations
T6 chain: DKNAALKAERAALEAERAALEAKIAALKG

[7] = biological target: T7, P6-AA-12HAA-S; experiment: two-hybrid library CCmax
T7 chain: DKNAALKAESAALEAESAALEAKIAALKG

[8] = biological target: T8, P6-AA-12HAA-V; experiment: two-hybrid library CCmax; details: mean of both orientations
T8 chain: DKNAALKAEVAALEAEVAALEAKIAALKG

[9] = biological target: T9, P6-AA-1HAA-N; experiment: two-hybrid library CCmax; details: mean of both orientations
T9 chain: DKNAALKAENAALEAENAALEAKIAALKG

[10] = biological target: T10, P6-AA-12HAA-K; experiment: two-hybrid library CCmax; details: mean of both orientations
T10 chain: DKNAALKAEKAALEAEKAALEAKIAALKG

[11] = biological target: T11, P6-AA-12HAA-T; experiment: two-hybrid library CCmax; details: mean of both orientations
T11 chain: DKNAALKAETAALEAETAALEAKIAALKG

[12] = biological target: T12, 4H3029-AA; experiment: two-hybrid library CCmax; details: mean of both orientations
T12 chain: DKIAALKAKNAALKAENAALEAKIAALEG

[13] = biological target: T13, 4H3102-AA; experiment: two-hybrid library CCmax; details: mean of both orientations
T13 chain: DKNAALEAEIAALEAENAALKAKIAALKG

[14] = biological target: T14, 4H675-AA; experiment: two-hybrid library CCmax; details: mean of both orientations
T14 chain: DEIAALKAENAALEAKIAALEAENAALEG

[15] = biological target: T15, 4H478-AA; experiment: two-hybrid library CCmax; details: mean of both orientations
T15 chain: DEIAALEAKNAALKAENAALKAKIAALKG

[16] = biological target: T16, 4H3628-AA; experiment: two-hybrid library CCmax; details: mean of both orientations
T16 chain: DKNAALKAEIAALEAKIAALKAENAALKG

[17] = biological target: T17, 4H2283-AA; experiment: two-hybrid library CCmax
T17 chain: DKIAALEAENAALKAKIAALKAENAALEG

[18] = biological target: T18, 4H3446-AA; experiment: two-hybrid library CCmax; details: mean of both orientations
T18 chain: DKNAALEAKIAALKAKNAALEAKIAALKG

[19] = biological target: T19, 4H3666-AA; experiment: two-hybrid library CCmax; details: mean of both orientations
T19 chain: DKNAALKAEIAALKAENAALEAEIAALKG

[20] = biological target: T20, 4H2713-AA; experiment: two-hybrid library CCmax; details: mean of both orientations
T20 chain: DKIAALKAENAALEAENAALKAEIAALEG

[21] = biological target: T21, 4H3939-AA; experiment: two-hybrid library CCmax; details: mean of both orientations
T21 chain: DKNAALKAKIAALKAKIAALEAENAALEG

[22] = biological target: T22, 4H3417-AA; experiment: two-hybrid library CCmax; details: mean of both orientations
T22 chain: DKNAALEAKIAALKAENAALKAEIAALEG

[23] = biological target: T23, 4H428-AA; experiment: two-hybrid library CCmax; details: mean of both orientations
T23 chain: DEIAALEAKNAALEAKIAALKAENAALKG

[24] = biological target: T24, 4H497-AA; experiment: two-hybrid library CCmax; details: mean of both orientations
T24 chain: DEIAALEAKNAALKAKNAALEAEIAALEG

[25] = biological target: T25, 4H3920-AA; experiment: two-hybrid library CCmax; details: mean of both orientations
T25 chain: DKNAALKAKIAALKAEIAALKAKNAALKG

[26] = biological target: T26, 4H3066-AA; experiment: two-hybrid library CCmax; details: mean of both orientations
T26 chain: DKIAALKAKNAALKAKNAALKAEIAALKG

[27] = biological target: T27, 4H656-AA; experiment: two-hybrid library CCmax; details: mean of both orientations
T27 chain: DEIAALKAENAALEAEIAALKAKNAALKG

[28] = biological target: T28, 4H3709-AA; experiment: two-hybrid library CCmax; details: mean of both orientations
T28 chain: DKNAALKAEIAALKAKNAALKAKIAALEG

[29] = biological target: T29, 4H971-AA; experiment: two-hybrid library CCmax; details: mean of both orientations
T29 chain: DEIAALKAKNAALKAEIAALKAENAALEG

[30] = biological target: T30, 4H2742-AA; experiment: two-hybrid library CCmax; details: mean of both orientations
T30 chain: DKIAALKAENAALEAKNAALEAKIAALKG

[31] = biological target: T31, 4H2948-AA; experiment: two-hybrid library CCmax; details: mean of both orientations
T31 chain: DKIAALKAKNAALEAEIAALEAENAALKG

[32] = biological target: T32, 4H2991-AA; experiment: two-hybrid library CCmax; details: mean of both orientations
T32 chain: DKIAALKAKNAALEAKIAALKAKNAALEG

[33] = biological target: T33, 4H3121-AA; experiment: two-hybrid library CCmax; details: mean of both orientations
T33 chain: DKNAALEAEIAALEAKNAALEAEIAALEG

[34] = biological target: T34, 4H391-AA; experiment: two-hybrid library CCmax; details: mean of both orientations
T34 chain: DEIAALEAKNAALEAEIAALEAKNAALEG

[35] = biological target: T35, 4H3591-AA; experiment: two-hybrid library CCmax; details: mean of both orientations
T35 chain: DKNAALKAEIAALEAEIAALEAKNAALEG

[36] = biological target: T36, 4H3364-bN; experiment: two-hybrid library CCNG1
T36 chain: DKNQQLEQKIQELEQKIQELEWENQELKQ

[37] = biological target: T37, 4H2931-bN; experiment: two-hybrid library CCNG1
T37 chain: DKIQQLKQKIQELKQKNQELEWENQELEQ

[38] = biological target: T38, 4H949-bN; experiment: two-hybrid library CCNG1
T38 chain: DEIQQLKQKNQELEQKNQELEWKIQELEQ

[39] = biological target: T39, 4H730-bN; experiment: two-hybrid library CCNG1
T39 chain: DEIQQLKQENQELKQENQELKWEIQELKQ

[40] = biological target: T40, 4H56-bN; experiment: two-hybrid library CCNG1
T40 chain: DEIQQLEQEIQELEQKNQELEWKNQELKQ

[41] = biological target: T41, 4H3041-bN; experiment: two-hybrid library CCNG1
T41 chain: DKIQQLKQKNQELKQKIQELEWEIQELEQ

[42] = biological target: T42, 4H349-bN; experiment: two-hybrid library CCNG1
T42 chain: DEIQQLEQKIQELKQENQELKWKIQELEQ

[43] = biological target: T43, 4H3297-bN; experiment: two-hybrid library CCNG1
T43 chain: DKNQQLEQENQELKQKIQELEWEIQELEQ

[44] = biological target: T44, 4H932-bN; experiment: two-hybrid library CCNG1
T44 chain: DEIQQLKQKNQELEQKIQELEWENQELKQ

[45] = biological target: T45, 4H796-bN; experiment: two-hybrid library CCNG1
T45 chain: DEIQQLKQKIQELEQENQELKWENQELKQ

[46] = biological target: T46, 4H3381-bN; experiment: two-hybrid library CCNG1
T46 chain: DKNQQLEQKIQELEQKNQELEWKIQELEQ

B1: P5-AA-12HAA-T (peptide)
chain: DENAALEAKTAALKAKTAALKAEIAALEG
interaction score [1]: -1.36 | interaction score [2]: -1.12 | interaction score ([3]; mean of both orientations): 0.46 | interaction score [4]: -2.09 | interaction score [5]: 1.25 | interaction score [6]: -1.74 | interaction score ([7]; mean of both orientations): -1.61 | interaction score [8]: 1.5 | interaction score [9]: -1.49 | interaction score [10]: -1.33 | interaction score [11]: -1.23

B2: P5-AA-12HAA-V (peptide)
chain: DENAALEAKVAALKAKVAALKAEIAALEG
interaction score [1]: 1.61 | interaction score [2]: 1.34 | interaction score ([3]; mean of both orientations): 1.09 | interaction score [4]: -1.5 | interaction score [5]: 2.29 | interaction score [6]: 1.94 | interaction score ([7]; mean of both orientations): 1.18 | interaction score [8]: 2.1 | interaction score [9]: -0.708 | interaction score [10]: 1.73 | interaction score [11]: 1.87

B3: 4H2283-AA (peptide)
chain: DKIAALEAENAALKAKIAALKAENAALEG
interaction score [12]: -1.74 | interaction score [13]: 0.17 | interaction score [14]: -0.967 | interaction score [15]: -1.52 | interaction score [16]: -1.32 | interaction score [17]: 1.25 | interaction score [18]: -1.15 | interaction score [19]: -0.868 | interaction score [20]: -1.19 | interaction score [21]: -1.94 | interaction score [22]: 1.63 | interaction score [23]: -0.691 | interaction score [24]: -1.45 | interaction score [25]: -1.54 | interaction score [26]: -1.63 | interaction score [27]: 1.84 | interaction score [28]: -1.11 | interaction score [29]: -0.878 | interaction score [30]: -1.21 | interaction score [31]: 0.785 | interaction score [32]: -1.95 | interaction score [33]: -0.934 | interaction score [34]: -0.595 | interaction score [35]: -1.46

B4: P5-AA-12HAA-E (peptide)
chain: DENAALEAKEAALKAKEAALKAEIAALEG
interaction score [1]: -1.42 | interaction score [2]: -1.89 | interaction score ([3]; mean of both orientations): -1.59 | interaction score [4]: -1.48 | interaction score [5]: -0.949 | interaction score [6]: -2.01 | interaction score ([7]; mean of both orientations): -1.39 | interaction score [8]: 0.123 | interaction score [9]: -1.74 | interaction score [10]: -2.37 | interaction score [11]: -1.32

B5: P5-AA-12HAA-L (peptide)
chain: DENAALEAKLAALKAKLAALKAEIAALEG
interaction score [1]: 0.451 | interaction score [2]: -0.352 | interaction score [3]: 2.26 | interaction score [4]: -1.57 | interaction score [5]: 1.74 | interaction score [6]: -0.243 | interaction score ([7]; mean of both orientations): -0.666 | interaction score [8]: 2.39 | interaction score [9]: -0.665 | interaction score [10]: 0.645 | interaction score [11]: 1.66

B6: P5-AA-12HAA-K (peptide)
chain: DENAALEAKKAALKAKKAALKAEIAALEG
interaction score [1]: -1.48 | interaction score [2]: -1.46 | interaction score ([3]; mean of both orientations): -1.01 | interaction score [4]: -1.9 | interaction score [5]: 1.03 | interaction score [6]: -1.57 | interaction score [7]: -2.76 | interaction score [8]: 2.22 | interaction score [9]: -1.37 | interaction score [10]: -1.5 | interaction score [11]: -0.798

B7: P5-AA-12HAA-S (peptide)
chain: DENAALEAKSAALKAKSAALKAEIAALEG
interaction score [1]: -1.88 | interaction score [2]: -1.82 | interaction score ([3]; mean of both orientations): -0.94 | interaction score [4]: -1.65 | interaction score [5]: 0.323 | interaction score [6]: -1.81 | interaction score ([7]; mean of both orientations): -1.65 | interaction score [8]: 1.55 | interaction score [9]: -1.02 | interaction score [10]: -1.73 | interaction score [11]: -1.48

B8: 4H2931-bN (peptide)
chain: DKIQQLKQKIQELKQKNQELEWENQELEQ
interaction score [36]: -0.721 | interaction score [37]: -0.656 | interaction score [38]: -0.75 | interaction score [39]: -1.27 | interaction score [40]: 0.0366 | interaction score [41]: -0.593 | interaction score [42]: -1.08 | interaction score [43]: -0.835 | interaction score [44]: -0.619 | interaction score [45]: -1.66 | interaction score [46]: -1.1

B9: P5-AA-12HAA-R (peptide)
chain: DENAALEAKRAALKAKRAALKAEIAALEG
interaction score [1]: -1.43 | interaction score [2]: -1.83 | interaction score ([3]; mean of both orientations): -1.07 | interaction score [4]: -1.88 | interaction score [5]: 1.4 | interaction score [6]: -1.5 | interaction score ([7]; mean of both orientations): -1.83 | interaction score [8]: 2.1 | interaction score [9]: 0.341 | interaction score [10]: -1.69 | interaction score [11]: -0.88

Source: paper PMC10397247
